Laboratory results taken from doi:10.1101/591495 (bioRxiv, 2019).

Molecular target: the molecule itself
Experiment: atomic force microscopy

B1: B. stearothermophilus tryptophanyl-tRNA synthetase (TrpRS) (enzyme, UniProt P00953 1-328, looked up)
chain: MKTIFSGIQPSGVITIGNYIGALRQFVELQHEYNCYFCIVDQHAITVWQDPHELRQNIRRLAAKYLAVGIDPTQATLFIQSEVPAHAQAAWMLQCIVYIGELERMTQFKEKSAGKEAVSAGLLTYPPLMAADILLYNTDIVPVGEDQKQHIELTRDLAERFNKRYGELFTIPEARIPKVGARIMSLVDPTKKMSKSDPNPKAYITLLDDAKTIEKKIKSAVTDSEGTIRYDKEAKPGISNLLNIYSTLSGQSIEELERQYEGKGYGVFKADLAQVVIETLRPIQERYHHWMESEELDRVLDEGAEKANRVASEMVRKMEQAMGLGRRR
Kd: 5 nM
